Laboratory results taken from patent US20230348540A1 (UNIVERSITY OF COPENHAGEN, published 2023).
Ends that are not written are not given here. * marks the point of attachment. Biotin = O=C1N[C@H]2[C@H](CS[C@H]2CCCCC(=O)*)N1; Ahx = NCCCCCC(=O)O

B1: CC-Hex2-GS4-NSVRV (peptide)
peptide: {Biotin-Ahx}-GEIAKSLKEIAKSLKEIAWSLKEIAKSLKGGGGSNSVRV
B2: SNTANRRTTPV (peptide)
peptide: SNTANRRTTPV
notes: also called Stg; RRTTPV monomer
B3: CC-Hex2-GS4-HWLKV (peptide)
peptide: {Biotin-Ahx}-GEIAKSLKEIAKSLKEIAWSLKEIAKSLKGGGGSHWLKV
notes: also called CC-hex-GS4-HWLKV
B4: CC-Tet-GS4-HWLKV (peptide)
peptide: {Biotin-Ahx}-GELAAIKQELAAIKKELAAIKWELAAIKQGGGGSHWLKV
notes: also called CC-tet2-GS4-HWLKV
B5: CC-Hex2-GS4-IETDV (peptide)
peptide: {Biotin-Ahx}-GEIAKSLKEIAKSLKEIAWSLKEIAKSLKGGGGSIETDV
B6: CC-Hex2-GS4-RRTTPV (peptide)
peptide: {Biotin-Ahx}-GEIAKSLKEIAKSLKEIAWSLKEIAKSLKGGGGSRRTTPV
B7: GCN4p1-GS4-GS4 (non-binding control peptide) (peptide)
peptide: not shown
modifications: N-terminal biotin joined through 6-aminohexanoic acid (Ahx)
notes: also called biotin-Ahx-GCN4p1-GS4-GS4; biotin-Ahx-GCN4p1-GS-GS
B8: NYIRV (peptide)
peptide: NYIRV
notes: also called DAT-C5 variant
B9: NSIIV (peptide)
peptide: NSIIV
notes: also called DAT-C5 variant
B10: NYIIV (peptide)
peptide: NYIIV
notes: also called DAT-C5 variant
B11: NEVRV (peptide)
peptide: NEVRV
notes: also called DAT-C5 variant
B12: NEIIV (peptide)
peptide: NEIIV
notes: also called DAT-C5 variant
B13: NEIRV (peptide)
peptide: NEIRV
notes: also called DAT-C5 variant
B14: NSIRV (peptide)
peptide: NSIRV
notes: also called DAT-C5 variant
B15: NSVRV (peptide)
peptide: NSVRV
notes: also called DAT-C5 variant
B16: NSVIV (peptide)
peptide: NSVIV
notes: also called DAT-C5 variant
B17: TSVIV (peptide)
peptide: TSVIV
notes: also called DAT-C5 variant
B18: TSIIV (peptide)
peptide: TSIIV
notes: also called DAT-C5 variant
B19: TEVRV (peptide)
peptide: TEVRV
notes: also called DAT-C5 variant
B20: TSIRV (peptide)
peptide: TSIRV
notes: also called DAT-C5 variant
B21: TEVIV (peptide)
peptide: TEVIV
notes: also called DAT-C5 variant
B22: TEIRV (peptide)
peptide: TEIRV
notes: also called DAT-C5 variant
B23: NYVRV (peptide)
peptide: NYVRV
notes: also called DAT-C5 variant
B24: NYVIV (peptide)
peptide: NYVIV
notes: also called DAT-C5 variant
B25: TYVIV (peptide)
peptide: TYVIV
notes: also called DAT-C5 variant
B26: TYIRV (peptide)
peptide: TYIRV
notes: also called DAT-C5 variant
B27: FSIRV (peptide)
peptide: FSIRV
notes: also called DAT-C5 variant
B28: FSIIV (peptide)
peptide: FSIIV
notes: also called DAT-C5 variant
B29: TYVRV (peptide)
peptide: TYVRV
notes: also called DAT-C5 variant
B30: TYIIV (peptide)
peptide: TYIIV
notes: also called DAT-C5 variant
B31: FEIIV (peptide)
peptide: FEIIV
notes: also called DAT-C5 variant
B32: FSVRV (peptide)
peptide: FSVRV
notes: also called DAT-C5 variant
B33: FEIRV (peptide)
peptide: FEIRV
notes: also called DAT-C5 variant
B34: FEVRV (peptide)
peptide: FEVRV
notes: also called DAT-C5 variant
B35: FYIRV (peptide)
peptide: FYIRV
notes: also called DAT-C5 variant
B36: FYVIV (peptide)
peptide: FYVIV
notes: also called DAT-C5 variant
B37: FEVIV (peptide)
peptide: FEVIV
notes: also called DAT-C5 variant
B38: FYIIV (peptide)
peptide: FYIIV
notes: also called DAT-C5 variant
B39: FYVRV (peptide)
peptide: FYVRV
notes: also called DAT-C5 variant
B40: SVIV (peptide)
peptide: SVIV
notes: also called DAT-C5 variant
B41: SVRV (peptide)
peptide: SVRV
notes: also called DAT-C5 variant
B42: SIIV (peptide)
peptide: SIIV
notes: also called DAT-C5 variant
B43: EIIV (peptide)
peptide: EIIV
notes: also called DAT-C5 variant
B44: EVIV (peptide)
peptide: EVIV
notes: also called DAT-C5 variant
B45: EIRV (peptide)
peptide: EIRV
notes: also called DAT-C5 variant
B46: YIRV (peptide)
peptide: YIRV
notes: also called DAT-C5 variant
B47: YVIV (peptide)
peptide: YVIV
notes: also called DAT-C5 variant
B48: EVRV (peptide)
peptide: EVRV
notes: also called DAT-C5 variant
B49: YIIV (peptide)
peptide: YIIV
notes: also called DAT-C5 variant
B50: YVRV (peptide)
peptide: YVRV
notes: also called DAT-C5 variant

Molecular target: T1, Full length rat PICK1 (Protein Interacting with C Kinase-1) (rat, UniProt Q9EP80 1-416)
T1 construct: mature; Residues left by the cleaved tag are not described; also called purified PICK1
Experiment: FP competition (FIG. 17C)

Q: Does B1 bind?
A: Result: binds

Molecular target: T2, TRX-6xHis-hPSD95 1-724 (full length human PSD-95) (human, UniProt P78352 1-724, Alexa488 label in the confocal experiment of Example 5 only)
T2 construct: range 1-724; Purified by HisTrap and SEC; also called FL-PSD-95; not shown: TRX-6xHis tag encoded by the pET-MG-3C plasmid
Experiment: SDS-PAGE sedimentation assay

Q: Does B2 bind?
A: Result: binds

Molecular target: T1, Full length rat PICK1 (Protein …)
Experiment: FP competition, tracer 5-FAM-(HWLKV)2 10 nM, PICK1 (Example 8)
Method: The plates were incubated 30-40 min on ice and the fluorescence polarization was measured on an Omega POLARstar plate (BMG LABTECH) reader using excitation filter at 485 nm and long pass emission filter at 520 nm. The data was plotted using GraphPad Prism 8.3, and fitted to the ‘One site—Fit’ Kᵢ competition curve, to extract apparent KI values.

Q: With B3 as the binder, how does the Ki read?
A: Its Ki is 22.9 nM.

Q: How did the Ki turn out when B4 was run?
A: Its Ki is 2.47 nM.

Molecular target: T3, PSD-95 PDZ1-2 (UniProt P78352 61-249, limits assumed)
T3 construct: domain: PDZ1-2
Experiment: FP competition, tracer 5-FAM-(IETAV)2 5 nM, PSD-95 PDZ12 0.15 µM
Excerpt: FIG. 18: Fluorescence polarization competition binding curves for the unlabelled peptides. […] Data expressed as mean±SEM (n=3).
The data was plotted using GraphPad Prism 8.3, and fitted to the ‘One site—Fit’ Kᵢ competition curve, to extract apparent KI values.

Q: For B5, which Ki is on record?
A: Its Ki is 56 nM.

Q: Which Ki does the source give for B6 here?
A: The Ki was 242 nM.

Molecular target: T4, PICK1 protein in mouse spinal cord lysate (mouse, UniProt Q62083 1-416)
T4 construct: Endogenous protein, detected by Western blot after pull-down
Experiment: pull-down with biotinylated peptide on streptavidin beads from mouse spinal cord lysate, western blot [D]

Q: Does B7 bind?
A: Result: no binding

Molecular target: T5, PSD-95 protein in mouse spinal cord lysate (mouse, UniProt Q62108 1-724, limits assumed)
T5 construct: Endogenous protein, detected by Western blot after pull-down
Experiment: as above

Q: Does B7 bind?
A: Result: no binding

Molecular target: T6, nNOS protein in mouse spinal cord lysate (mouse, UniProt Q9Z0J4 1-1429, limits assumed)
T6 construct: Endogenous protein, detected by Western blot after pull-down
Experiment: as above

Q: Does B7 bind?
A: Result: no binding

Molecular target: T1, Full length rat PICK1 (Protein …)
Experiment: FP competition on purified PICK1, tracer 5FAM-HWLKV 20 nM; fold change against HWLKV [panel 1 from the left]

Q: Does B8 bind?
A: Result: binds

Q: Does B9 bind?
A: Result: binds

Q: Does B10 bind?
A: Result: binds

Q: Does B11 bind?
A: Result: binds

Q: Does B12 bind?
A: Result: binds

Q: Does B13 bind?
A: Result: binds

Q: Does B14 bind?
A: Result: binds

Q: Does B15 bind?
A: Result: binds

Q: Does B16 bind?
A: Result: binds

Molecular target: T1, Full length rat PICK1 (Protein …)
Experiment: FP competition on purified PICK1, tracer 5FAM-HWLKV 20 nM; fold change against HWLKV [panel 2 from the left]

Q: Does B17 bind?
A: Result: binds

Q: Does B18 bind?
A: Result: binds

Q: Does B19 bind?
A: Result: binds

Q: Does B20 bind?
A: Result: binds

Q: Does B21 bind?
A: Result: binds

Q: Does B22 bind?
A: Result: binds

Q: Does B23 bind?
A: Result: binds

Q: Does B24 bind?
A: Result: binds

Molecular target: T1, Full length rat PICK1 (Protein …)
Experiment: FP competition on purified PICK1, tracer 5FAM-HWLKV 20 nM; fold change against HWLKV [panel 3 from the left]

Q: Does B25 bind?
A: Result: binds

Q: Does B26 bind?
A: Result: binds

Q: Does B27 bind?
A: Result: binds

Q: Does B28 bind?
A: Result: binds

Q: Does B29 bind?
A: Result: binds

Q: Does B30 bind?
A: Result: binds

Q: Does B31 bind?
A: Result: binds

Q: Does B32 bind?
A: Result: binds

Q: Does B33 bind?
A: Result: binds

Molecular target: T1, Full length rat PICK1 (Protein …)
Experiment: FP competition on purified PICK1, tracer 5FAM-HWLKV 20 nM; fold change against HWLKV [panel 4 from the left]

Q: Does B34 bind?
A: Result: binds

Q: Does B35 bind?
A: Result: binds

Q: Does B36 bind?
A: Result: binds

Q: Does B37 bind?
A: Result: binds

Q: Does B38 bind?
A: Result: binds

Q: Does B39 bind?
A: Result: binds

Q: Does B40 bind?
A: Result: binds

Q: Does B41 bind?
A: Result: binds

Q: Does B42 bind?
A: Result: binds

Q: Does B43 bind?
A: Result: binds

Molecular target: T1, Full length rat PICK1 (Protein …)
Experiment: FP competition on purified PICK1, tracer 5FAM-HWLKV 20 nM; fold change against HWLKV [panel 5 from the left]

Q: Does B44 bind?
A: Result: binds

Q: Does B45 bind?
A: Result: binds

Q: Does B46 bind?
A: Result: binds

Q: Does B47 bind?
A: Result: binds

Q: Does B48 bind?
A: Result: binds

Q: Does B49 bind?
A: Result: binds

Q: Does B50 bind?
A: Result: binds
